Assay in all cases: flow cytometry, soluble tagged antigen staining T cells that carry the construct
Background: A flow cytometer gives signals particle by particle.

Test [1] concerns the target T1, Human CTLA-4 / CD152 Protein, Fc Tag (ACRO) (human, UniProt P16410 36-161, limits assumed).
T1 construct: Bought reagent (ACRO); no catalogue number, no construct limits; not shown: Fc tag
T1 sequence (looked up): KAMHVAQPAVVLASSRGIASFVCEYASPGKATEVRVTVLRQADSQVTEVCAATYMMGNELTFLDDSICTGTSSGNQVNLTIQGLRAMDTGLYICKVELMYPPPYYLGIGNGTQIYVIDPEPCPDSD

In test [2] the target is T2, Human LAG-3 / CD223 Protein, His Tag (ACRO) (human, UniProt P18627 23-450).
T2 construct: Bought reagent (ACRO); no catalogue number, no construct limits; not shown: His tag
T2 sequence (looked up): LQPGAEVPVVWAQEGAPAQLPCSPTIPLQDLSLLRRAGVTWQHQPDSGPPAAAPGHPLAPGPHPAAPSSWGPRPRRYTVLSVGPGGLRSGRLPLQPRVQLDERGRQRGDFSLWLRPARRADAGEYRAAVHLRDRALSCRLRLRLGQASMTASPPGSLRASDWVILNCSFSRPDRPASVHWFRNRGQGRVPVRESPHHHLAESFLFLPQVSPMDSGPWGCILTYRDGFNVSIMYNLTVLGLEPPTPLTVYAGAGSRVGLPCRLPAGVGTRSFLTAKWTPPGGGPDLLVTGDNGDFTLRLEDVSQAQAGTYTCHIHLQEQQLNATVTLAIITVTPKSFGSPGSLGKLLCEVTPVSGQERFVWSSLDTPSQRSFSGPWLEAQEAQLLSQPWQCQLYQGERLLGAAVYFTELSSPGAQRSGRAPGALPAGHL

The target of test [3] is T3, Human PD-1 / PDCD1 Protein, His Tag (ACRO) (human, UniProt Q15116 25-167).
T3 construct: Bought reagent (ACRO); no catalogue number, no construct limits; also called CD279; not shown: His tag

The target of test [4] is T4, Human TIGIT Protein, Fc Tag (ACRO) (human, UniProt Q495A1 22-141).
T4 construct: Bought reagent (ACRO); no catalogue number, no construct limits; also called Human TIGIT Protein, Fc TagTIGIT; not shown: Fc tag
T4 sequence (looked up): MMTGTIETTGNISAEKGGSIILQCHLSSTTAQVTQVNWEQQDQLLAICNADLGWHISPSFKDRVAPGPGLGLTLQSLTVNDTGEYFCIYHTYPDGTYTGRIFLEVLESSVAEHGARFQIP

T3 sequence (Q15116 25-167 limits assumed): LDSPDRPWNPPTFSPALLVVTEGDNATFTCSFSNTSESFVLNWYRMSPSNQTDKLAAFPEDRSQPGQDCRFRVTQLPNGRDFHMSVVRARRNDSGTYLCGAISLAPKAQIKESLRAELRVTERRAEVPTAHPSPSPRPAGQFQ

B1: immunosuppressive molecule of plasmid CAR19-C4T3 (anti-CTLA4 scFv, linker, anti-TIM3 scFv, IgG4 hinge, CD28 transmembrane region, CD28 co-stimulatory domain), … (other)
chain: QVQLVESGGGVVQPGRSLRLSCAASGFTFSSYGMHWVRQAPGKGLEWVAVIWYDGSNKYYADSVKGRFTISRDNSKNTLYLQMNSLRAEDTAVFYCARAPNYIGAFDVWGQGTMVTVSSGGGGSGGGGSGGGGSDIQMTQSPSSLSASVGDRVTITCRASQGISSWLAWYQQKPEKAPKSLIYAASSLQSGVPSRFSGSGSGTDFTLTISSLQPEDFATYYCQQYNSYPPTFGQGTKVEIKGGGGSGGGGSGGGGSQVQLVQSGAEVKKPGSSVKVSCKASGYTFTSYNMHWVRQAPGQGLEWMGDIYPGNGDTSYNQKFKGRVTITADKSTSTVYMELSSLRSEDTAVYYCARVGGAFPMDYWGQGTTVTVSSGGGGSGGGGSGGGGSAIQLTQSPSSLSASVGDRVTITCRASESVEYYGTSLMQWYQQKPGKAPKLLIYAASNVESGVPSRFSGSGSGTDFTLTISSLQPEDFATYFCQQSRKDPSTFGGGTKVEIKESKYGPPCPPCPFWVLVVVGGVLACYSLLVTVAFIIFWVRSKRSRLLHSDYMNMTPRRPGPTRKHYQPYAPPRDFAAYRS
notes: Membrane-anchored on transduced T cells that also express the anti-CD19 CAR
For B1, in test [1], the binding result is “binds”.

B2: immunosuppressive molecule of plasmid CAR19-AL3 (anti-NKG2A scFv, linker, anti-LAG3 scFv, IgG4 hinge, CD28 transmembrane region, CD28 co-stimulatory domain), … (other)
chain: EIVLTQSPATLSLSPGERATMTCSASSSVSSYIYWYQQKPGQAPRLLIYLTSNLASGIPARFSGSGSGTDFTLTISSLEPEDFATYYCQQWSGNPYTFGQGTKVEIKGSTSGSGKPGSGEGSTKGEVQLVESGGGLVKPGGSLRLSCAASGFTFSSYAMSWVRQAPGKGLEWVAEISSGGSYTYYPDSVKGRFTISRDNAKNSLYLQMNSLRAEDTAVYYCTRHGDYPRFFDVWGQGTLVTVSSGGGGSGGGGSGGGGSQVQLQQWGAGLLKPSETLSLTCAVYGGSFSDYYWNWIRQPPGKGLEWIGEINHRGSTNSNPSLKSRVTLSLDTSKNQFSLKLRSVTAADTAVYYCAFGYSDYEYNWFDPWGQGTLVTVSSGGGGSGGGGSGGGGSEIVLTQSPATLSLSPGERATLSCRASQSISSYLAWYQQKPGQAPRLLIYDASNRATGIPARFSGSGSGTDFTLTISSLEPEDFAVYYCQQRSNWPLTFGQGTNLEIKRESKYGPPCPPCPFWVLVVVGGVLACYSLLVTVAFIIFWVRSKRSRLLHSDYMNMTPRRPGPTRKHYQPYAPPRDFAAYRS
notes: Membrane-anchored on lentivirally transduced human T cells that also express the anti-CD19 CAR (separated by T2A)
Regarding B2, the binding result in test [2] is “binds”.

B3: immunosuppressive molecule of plasmid CAR19-PC4 (anti-PD1 scFv, linker, anti-CTLA4 scFv, IgG4 hinge, CD28 transmembrane region, CD28 co-stimulatory domain), on … (other)
chain: QVQLVQSGVEVKKPGASVKVSCKASGYTFTNYYMYWVRQAPGQGLEWMGGINPSNGGTNFNEKFKNRVTLTTDSSTTTAYMELKSLQFDDTAVYYCARRDYRFDMGFDYWGQGTTVTVSSGGGGSGGGGSGGGGSEIVLTQSPATLSLSPGERATLSCRASKGVSTSGYSYLHWYQQKPGQAPRLLIYLASYLESGVPARFSGSGSGTDFTLTISSLEPEDFAVYYCQHSRDLPLTFGGGTKVEIKGGGGSGGGGSGGGGSQVQLVESGGGVVQPGRSLRLSCAASGFTFSSYGMHWVRQAPGKGLEWVAVIWYDGSNKYYADSVKGRFTISRDNSKNTLYLQMNSLRAEDTAVFYCARAPNYIGAFDVWGQGTMVTVSSGGGGSGGGGSGGGGSDIQMTQSPSSLSASVGDRVTITCRASQGISSWLAWYQQKPEKAPKSLIYAASSLQSGVPSRFSGSGSGTDFTLTISSLQPEDFATYYCQQYNSYPPTFGQGTKVEIKESKYGPPCPPCPFWVLVVVGGVLACYSLLVTVAFIIFWVRSKRSRLLHSDYMNMTPRRPGPTRKHYQPYAPPRDFAAYRS
notes: as for B1
Take B3: the binding result in test [1] and in test [3] was “binds” throughout.

B4: immunosuppressive molecule of plasmid CAR19-PT3 (anti-PD1 scFv, linker, anti-TIM3 scFv, IgG4 hinge, CD28 transmembrane region, CD28 co-stimulatory domain), on … (other)
chain: QVQLVQSGVEVKKPGASVKVSCKASGYTFTNYYMYWVRQAPGQGLEWMGGINPSNGGTNFNEKFKNRVTLTTDSSTTTAYMELKSLQFDDTAVYYCARRDYRFDMGFDYWGQGTTVTVSSGGGGSGGGGSGGGGSEIVLTQSPATLSLSPGERATLSCRASKGVSTSGYSYLHWYQQKPGQAPRLLIYLASYLESGVPARFSGSGSGTDFTLTISSLEPEDFAVYYCQHSRDLPLTFGGGTKVEIKGGGGSGGGGSGGGGSQVQLVQSGAEVKKPGSSVKVSCKASGYTFTSYNMHWVRQAPGQGLEWMGDIYPGNGDTSYNQKFKGRVTITADKSTSTVYMELSSLRSEDTAVYYCARVGGAFPMDYWGQGTTVTVSSGGGGSGGGGSGGGGSAIQLTQSPSSLSASVGDRVTITCRASESVEYYGTSLMQWYQQKPGKAPKLLIYAASNVESGVPSRFSGSGSGTDFTLTISSLQPEDFATYFCQQSRKDPSTFGGGTKVEIKESKYGPPCPPCPFWVLVVVGGVLACYSLLVTVAFIIFWVRSKRSRLLHSDYMNMTPRRPGPTRKHYQPYAPPRDFAAYRS
notes: as for B1
Regarding B4, the binding result in test [3] is “binds”.

B5: immunosuppressive molecule of plasmid CAR19-ATT (anti-NKG2A scFv, linker, anti-TIGIT scFv, IgG4 hinge, CD28 transmembrane region, CD28 co-stimulatory domain), … (other)
chain: EIVLTQSPATLSLSPGERATMTCSASSSVSSYIYWYQQKPGQAPRLLIYLTSNLASGIPARFSGSGSGTDFTLTISSLEPEDFATYYCQQWSGNPYTFGQGTKVEIKGSTSGSGKPGSGEGSTKGEVQLVESGGGLVKPGGSLRLSCAASGFTFSSYAMSWVRQAPGKGLEWVAEISSGGSYTYYPDSVKGRFTISRDNAKNSLYLQMNSLRAEDTAVYYCTRHGDYPRFFDVWGQGTLVTVSSGGGGSGGGGSGGGGSEVQLQQSGPGLVKPSQTLSLTCAISGDSVSSNSAAWNWIRQSPSRGLEWLGKTYYRFKWYSDYAVSVKGRITINPDTSKNQFSLQLNSVTPEDTAVFYCTRESTTYDLLAGPFDYWGQGTLVTVSSGGGGSGGGGSGGGGSDIVMTQSPDSLAVSLGERATINCKSSQTVLYSSNNKKYLAWYQQKPGQPPNLLIYWASTRESGVPDRFSGSGSGTDFTLTISSLQAEDVAVYYCQQYYSTPFTFGPGTKVEIKRESKYGPPCPPCPFWVLVVVGGVLACYSLLVTVAFIIFWVRSKRSRLLHSDYMNMTPRRPGPTRKHYQPYAPPRDFAAYRS
notes: as for B1
In the case of B5, the binding result in test [4] is “binds”.

B6: immunosuppressive molecule of plasmid CAR19-C4L3 (anti-CTLA4 scFv, linker, anti-LAG3 scFv, IgG4 hinge, CD28 transmembrane region, CD28 co-stimulatory domain), … (other)
chain: QVQLVESGGGVVQPGRSLRLSCAASGFTFSSYGMHWVRQAPGKGLEWVAVIWYDGSNKYYADSVKGRFTISRDNSKNTLYLQMNSLRAEDTAVFYCARAPNYIGAFDVWGQGTMVTVSSGGGGSGGGGSGGGGSDIQMTQSPSSLSASVGDRVTITCRASQGISSWLAWYQQKPEKAPKSLIYAASSLQSGVPSRFSGSGSGTDFTLTISSLQPEDFATYYCQQYNSYPPTFGQGTKVEIKGGGGSGGGGSGGGGSQVQLQQWGAGLLKPSETLSLTCAVYGGSFSDYYWNWIRQPPGKGLEWIGEINHRGSTNSNPSLKSRVTLSLDTSKNQFSLKLRSVTAADTAVYYCAFGYSDYEYNWFDPWGQGTLVTVSSGGGGSGGGGSGGGGSEIVLTQSPATLSLSPGERATLSCRASQSISSYLAWYQQKPGQAPRLLIYDASNRATGIPARFSGSGSGTDFTLTISSLEPEDFAVYYCQQRSNWPLTFGQGTNLEIKRESKYGPPCPPCPFWVLVVVGGVLACYSLLVTVAFIIFWVRSKRSRLLHSDYMNMTPRRPGPTRKHYQPYAPPRDFAAYRS
notes: as for B1
In the case of B6, the binding result in test [1] and in test [2] was “binds” in each case.

B7: immunosuppressive molecule of plasmid CAR19-PL3 (anti-PD1 scFv, linker, anti-LAG3 scFv, IgG4 hinge, CD28 transmembrane region, CD28 co-stimulatory domain), on … (other)
chain: QVQLVQSGVEVKKPGASVKVSCKASGYTFTNYYMYWVRQAPGQGLEWMGGINPSNGGTNFNEKFKNRVTLTTDSSTTTAYMELKSLQFDDTAVYYCARRDYRFDMGFDYWGQGTTVTVSSGGGGSGGGGSGGGGSEIVLTQSPATLSLSPGERATLSCRASKGVSTSGYSYLHWYQQKPGQAPRLLIYLASYLESGVPARFSGSGSGTDFTLTISSLEPEDFAVYYCQHSRDLPLTFGGGTKVEIKGGGGSGGGGSGGGGSQVQLQQWGAGLLKPSETLSLTCAVYGGSFSDYYWNWIRQPPGKGLEWIGEINHRGSTNSNPSLKSRVTLSLDTSKNQFSLKLRSVTAADTAVYYCAFGYSDYEYNWFDPWGQGTLVTVSSGGGGSGGGGSGGGGSEIVLTQSPATLSLSPGERATLSCRASQSISSYLAWYQQKPGQAPRLLIYDASNRATGIPARFSGSGSGTDFTLTISSLEPEDFAVYYCQQRSNWPLTFGQGTNLEIKRESKYGPPCPPCPFWVLVVVGGVLACYSLLVTVAFIIFWVRSKRSRLLHSDYMNMTPRRPGPTRKHYQPYAPPRDFAAYRS
notes: as for B1
For the molecule B7, the binding result in test [3] and in test [2] was “binds” each time.

B8: immunosuppressive molecule of plasmid CAR19-C4 (anti-CTLA4 scFv, IgG4 hinge, CD28 transmembrane region, CD28 co-stimulatory domain), on CAR19-C4 T cells (other)
chain: QVQLVESGGGVVQPGRSLRLSCAASGFTFSSYGMHWVRQAPGKGLEWVAVIWYDGSNKYYADSVKGRFTISRDNSKNTLYLQMNSLRAEDTAVFYCARAPNYIGAFDVWGQGTMVTVSSGGGGSGGGGSGGGGSDIQMTQSPSSLSASVGDRVTITCRASQGISSWLAWYQQKPEKAPKSLIYAASSLQSGVPSRFSGSGSGTDFTLTISSLQPEDFATYYCQQYNSYPPTFGQGTKVEIKESKYGPPCPPCPFWVLVVVGGVLACYSLLVTVAFIIFWVRSKRSRLLHSDYMNMTPRRPGPTRKHYQPYAPPRDFAAYRS
notes: as for B1
Turning to B8, the binding result in test [1] was “binds”.

The record behind these values is EP4663762A2 (HongKong Bioheng Biotech Limited, dated 2025).
